# From patent US5876710A, “Compounds and compositions for delivering active agents” (Emisphere Technologies Inc., priority 1997, dated 1999)
# Parameters: species or system Rats
# Details: rat, in vivo, po, 1 mg/kg
substance,measurement,value
interferon,Mean peak serum interferon concentration,1951±1857
